Assay results: paper PMC12295664
Values belong to the substance of their own block, whether it stands above or below them.

Experiments:
[1] = target: F-actin of rabbit psoas ghost muscle fibers (rabbit (endogenous in psoas muscle fibers)) (UniProt P68135); experiment: reconstitution of ghost muscle fibers, washing, SDS-PAGE densitometry; single rabbit psoas ghost fibers (F-actin held in the fiber) incubated with troponin, tropomyosin and S1 at 1.0–2.5 mg/mL in 50 mM KCl, 3 mM MgCl2, 1 mM DTT, 6.7 mM K,Na–phosphate pH 7.0; unbound protein washed off; 5–10 fibers on SDS-PAGE, bands quantified with calibration curves; average molar ratios to actin
[2] = target: AEDANS–S1 (myosin subfragment-1 labeled with 1,5-IAEDANS at Cys707); experiment: polarized fluorescence of AEDANS-S1 in ghost fibers; conditions: read off a plot
[3] = scale: mol actin per mol tropomyosin
[4] = S1 (no nucleotide), Actin + Tpm + Tn, + Ca2+, parent: est. 0.16
[5] = S1 (no nucleotide), Actin + Tpm + Tn, - Ca2+, parent: est. 0.14
[6] = S1 + ADP, Actin + Tpm + Tn, + Ca2+, parent: est. 0.16
[7] = S1 + ADP, Actin + Tpm + Tn, - Ca2+, parent: est. 0.18
[8] = S1 + ATP, Actin + Tpm + Tn, + Ca2+, parent: est. 0.46
[9] = S1 + ATP, Actin + Tpm + Tn, - Ca2+, parent: est. 0.36
[10] = S1 (no nucleotide), Actin + Tpm + Tn, - Ca2+, parent: est. 0.26
[11] = S1 + ADP, Actin + Tpm + Tn, + Ca2+, parent: est. 0.17
[12] = S1 + ADP, Actin + Tpm + Tn, - Ca2+, parent: est. 0.27
[13] = S1 + ATP, Actin + Tpm + Tn, - Ca2+, parent: est. 0.46
[14] = S1 + Tpm, no troponin, no nucleotide, parent: est. 0.16

wild-type α-tropomyosin (Tpm1.1) with N-terminal Met–Ala–Ser extension (natural protein), sequence (P04692 whole entry): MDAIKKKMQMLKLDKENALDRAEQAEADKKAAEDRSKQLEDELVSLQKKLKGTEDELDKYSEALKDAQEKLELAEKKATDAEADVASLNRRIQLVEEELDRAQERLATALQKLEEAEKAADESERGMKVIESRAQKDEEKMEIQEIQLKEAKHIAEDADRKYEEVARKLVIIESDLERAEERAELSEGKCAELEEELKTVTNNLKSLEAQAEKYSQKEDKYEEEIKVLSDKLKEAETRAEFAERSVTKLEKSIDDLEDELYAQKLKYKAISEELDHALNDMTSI
myosin subfragment-1 (S1), lacking regulatory light chains (domain or fragment), sequence (Q28641 whole entry, the tested form may be a part): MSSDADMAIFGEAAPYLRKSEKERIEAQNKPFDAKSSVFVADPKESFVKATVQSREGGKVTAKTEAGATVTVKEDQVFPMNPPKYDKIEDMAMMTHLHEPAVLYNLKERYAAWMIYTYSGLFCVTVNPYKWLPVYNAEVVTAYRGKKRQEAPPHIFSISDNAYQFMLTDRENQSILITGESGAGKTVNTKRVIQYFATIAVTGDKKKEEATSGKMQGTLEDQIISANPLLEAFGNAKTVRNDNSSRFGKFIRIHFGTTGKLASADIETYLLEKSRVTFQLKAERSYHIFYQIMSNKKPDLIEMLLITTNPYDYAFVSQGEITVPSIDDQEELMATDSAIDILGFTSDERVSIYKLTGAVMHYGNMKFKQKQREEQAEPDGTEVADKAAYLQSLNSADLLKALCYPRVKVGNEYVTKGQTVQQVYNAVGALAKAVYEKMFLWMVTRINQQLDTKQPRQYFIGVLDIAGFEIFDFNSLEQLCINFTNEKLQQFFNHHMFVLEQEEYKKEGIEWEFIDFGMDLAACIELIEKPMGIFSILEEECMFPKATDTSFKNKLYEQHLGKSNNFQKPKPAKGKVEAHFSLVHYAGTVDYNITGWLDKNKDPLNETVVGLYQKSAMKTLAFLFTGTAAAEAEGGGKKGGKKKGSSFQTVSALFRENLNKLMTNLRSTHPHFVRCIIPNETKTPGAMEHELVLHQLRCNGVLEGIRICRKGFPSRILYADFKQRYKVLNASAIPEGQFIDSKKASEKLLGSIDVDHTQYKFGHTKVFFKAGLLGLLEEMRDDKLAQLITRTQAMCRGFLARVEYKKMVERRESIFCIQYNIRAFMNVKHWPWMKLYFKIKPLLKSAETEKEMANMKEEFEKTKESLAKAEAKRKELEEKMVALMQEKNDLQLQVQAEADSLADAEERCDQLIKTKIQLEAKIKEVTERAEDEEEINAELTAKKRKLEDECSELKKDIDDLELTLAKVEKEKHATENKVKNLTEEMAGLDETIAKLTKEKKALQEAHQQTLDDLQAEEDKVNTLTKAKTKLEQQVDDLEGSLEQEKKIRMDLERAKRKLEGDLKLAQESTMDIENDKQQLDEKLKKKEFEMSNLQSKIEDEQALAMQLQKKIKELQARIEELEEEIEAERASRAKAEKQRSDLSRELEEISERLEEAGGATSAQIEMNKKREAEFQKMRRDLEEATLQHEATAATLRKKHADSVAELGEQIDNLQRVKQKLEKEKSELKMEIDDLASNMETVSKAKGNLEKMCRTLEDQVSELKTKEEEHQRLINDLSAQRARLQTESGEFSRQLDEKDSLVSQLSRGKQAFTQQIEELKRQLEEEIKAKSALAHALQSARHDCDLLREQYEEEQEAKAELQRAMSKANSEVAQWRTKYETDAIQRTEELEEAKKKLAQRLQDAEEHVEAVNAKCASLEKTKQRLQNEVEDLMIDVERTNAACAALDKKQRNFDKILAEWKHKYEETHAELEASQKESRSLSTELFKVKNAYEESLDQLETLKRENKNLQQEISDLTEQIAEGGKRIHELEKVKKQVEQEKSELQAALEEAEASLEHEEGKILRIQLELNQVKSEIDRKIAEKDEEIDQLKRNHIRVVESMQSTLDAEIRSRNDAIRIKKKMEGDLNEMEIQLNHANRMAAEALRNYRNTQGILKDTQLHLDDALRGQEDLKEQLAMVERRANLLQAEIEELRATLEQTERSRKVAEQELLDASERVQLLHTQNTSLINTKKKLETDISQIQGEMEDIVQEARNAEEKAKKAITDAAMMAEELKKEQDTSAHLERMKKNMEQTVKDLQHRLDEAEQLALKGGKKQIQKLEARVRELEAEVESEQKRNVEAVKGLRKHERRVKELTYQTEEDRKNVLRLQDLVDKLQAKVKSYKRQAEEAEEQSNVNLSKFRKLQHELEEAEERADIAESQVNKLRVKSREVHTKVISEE
troponin (rabbit skeletal muscle troponin complex), sequence (P02643 whole entry, looked up): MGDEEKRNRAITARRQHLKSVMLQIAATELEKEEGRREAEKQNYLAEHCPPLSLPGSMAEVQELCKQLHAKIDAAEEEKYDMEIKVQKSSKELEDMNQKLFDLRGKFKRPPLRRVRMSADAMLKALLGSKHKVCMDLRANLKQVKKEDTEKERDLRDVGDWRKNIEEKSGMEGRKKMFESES
troponin (rabbit skeletal muscle troponin complex), sequence (P02586 whole entry, looked up): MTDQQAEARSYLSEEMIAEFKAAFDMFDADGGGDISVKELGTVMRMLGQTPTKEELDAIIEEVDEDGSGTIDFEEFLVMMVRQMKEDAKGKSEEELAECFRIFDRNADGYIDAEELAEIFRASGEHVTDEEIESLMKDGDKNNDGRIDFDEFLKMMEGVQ
wild-type β-tropomyosin (human TPM2) with N-terminal Met–Ala–Ser extension (natural protein), sequence (P07951 whole entry): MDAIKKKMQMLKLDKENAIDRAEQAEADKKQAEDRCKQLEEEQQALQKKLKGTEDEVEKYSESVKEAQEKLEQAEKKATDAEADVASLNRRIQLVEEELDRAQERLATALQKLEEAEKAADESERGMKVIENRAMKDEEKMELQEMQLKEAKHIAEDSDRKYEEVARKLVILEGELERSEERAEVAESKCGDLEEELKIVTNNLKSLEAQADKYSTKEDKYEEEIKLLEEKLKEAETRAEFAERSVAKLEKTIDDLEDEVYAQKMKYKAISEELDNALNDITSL
wild-type γ-tropomyosin (Tpm3.12, human TPM3) with N-terminal Met–Ala–Ser extension (natural protein), sequence (Q5KR47 whole entry): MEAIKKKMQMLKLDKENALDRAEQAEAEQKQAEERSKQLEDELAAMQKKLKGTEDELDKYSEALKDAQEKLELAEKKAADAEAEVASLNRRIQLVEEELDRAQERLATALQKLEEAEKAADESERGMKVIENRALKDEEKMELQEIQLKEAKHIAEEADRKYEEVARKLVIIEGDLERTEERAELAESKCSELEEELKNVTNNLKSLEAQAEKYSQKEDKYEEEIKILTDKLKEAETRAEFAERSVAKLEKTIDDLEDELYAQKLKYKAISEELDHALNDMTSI

stoichiometry N ([1]; scale: mol actin per mol S1): 4.1
Substance: myosin subfragment-1 (S1), lacking regulatory light chains (domain or fragment)

stoichiometry N ([1]; scale: mol actin per mol troponin): 7.5
Substance: troponin (rabbit skeletal muscle troponin complex) (from UniProt P02586 1-160; P02643 1-182)

stoichiometry N [1, 3]: 6.9
Substance: wild-type α-tropomyosin (Tpm1.1) with N-terminal Met–Ala–Ser extension (natural protein)

other: N (relative number of disordered fluorophores) [2, 4]: 0.17 rel. units | other: N (relative number of disordered fluorophores) [2, 5]: 0.06 rel. units | other: N (relative number of disordered fluorophores) [2, 6]: 0.11 rel. units | other: N (relative number of disordered fluorophores) [2, 7]: 0.23 rel. units | other: N (relative number of disordered fluorophores) [2, 8]: 0.34 rel. units | other: N (relative number of disordered fluorophores) [2, 9]: 0.36 rel. units
Substance: wild-type α-tropomyosin (Tpm1.1) with N-terminal Met–Ala–Ser extension K168E

other: N (relative number of disordered fluorophores) [2, 4]: 0.14 rel. units | other: N (relative number of disordered fluorophores) [2, 5]: 0.085 rel. units | other: N (relative number of disordered fluorophores) [2, 6]: 0.2 rel. units | other: N (relative number of disordered fluorophores) [2, 7]: 0.24 rel. units | other: N (relative number of disordered fluorophores) [2, 8]: 0.44 rel. units | other: N (relative number of disordered fluorophores) [2, 9]: 0.35 rel. units
Substance: wild-type α-tropomyosin (Tpm1.1) with N-terminal Met–Ala–Ser extension R167H

stoichiometry N [1, 3]: 6.9
Substance: wild-type β-tropomyosin (human TPM2) with N-terminal Met–Ala–Ser extension (natural protein)

other: N (relative number of disordered fluorophores) ([2]; S1 (no nucleotide), Actin + Tpm + Tn, + Ca2+, parent: est. 0.40): 0.38 rel. units | other: N (relative number of disordered fluorophores) ([2]; S1 (no nucleotide), Actin + Tpm + Tn, - Ca2+, parent: est. 0.25): 0.28 rel. units | other: N (relative number of disordered fluorophores) ([2]; S1 + ADP, Actin + Tpm + Tn, + Ca2+, parent: est. 0.39): 0.39 rel. units | other: N (relative number of disordered fluorophores) ([2]; S1 + ADP, Actin + Tpm + Tn, - Ca2+, parent: est. 0.28): 0.33 rel. units | other: N (relative number of disordered fluorophores) ([2]; S1 + ATP, Actin + Tpm + Tn, + Ca2+, parent: est. 0.68): 0.6 rel. units | other: N (relative number of disordered fluorophores) ([2]; S1 + ATP, Actin + Tpm + Tn, - Ca2+, parent: est. 0.44): 0.53 rel. units | other: N (relative number of disordered fluorophores) ([2]; S1 + Tpm, no troponin, no nucleotide, parent: est. 0.26): 0.39 rel. units
Substance: wild-type β-tropomyosin (human TPM2) with N-terminal Met–Ala–Ser extension E117K

other: N (relative number of disordered fluorophores) ([2]; S1 (no nucleotide), Actin + Tpm + Tn, + Ca2+, parent: est. 0.27): 0.26 rel. units | other: N (relative number of disordered fluorophores) ([2]; S1 (no nucleotide), Actin + Tpm + Tn, - Ca2+, parent: est. 0.29): 0.28 rel. units | other: N (relative number of disordered fluorophores) ([2]; S1 + ADP, Actin + Tpm + Tn, + Ca2+, parent: est. 0.30): 0.28 rel. units | other: N (relative number of disordered fluorophores) ([2]; S1 + ADP, Actin + Tpm + Tn, - Ca2+, parent: est. 0.32): 0.27 rel. units | other: N (relative number of disordered fluorophores) ([2]; S1 + ATP, Actin + Tpm + Tn, + Ca2+, parent: est. 0.45): 0.61 rel. units | other: N (relative number of disordered fluorophores) ([2]; S1 + ATP, Actin + Tpm + Tn, - Ca2+, parent: est. 0.60): 0.38 rel. units | other: N (relative number of disordered fluorophores) ([2]; S1 + Tpm, no troponin, no nucleotide, parent: est. 0.28): 0.27 rel. units
Substance: wild-type β-tropomyosin (human TPM2) with N-terminal Met–Ala–Ser extension R91G

stoichiometry N [1, 3]: 6.9
Substance: wild-type γ-tropomyosin (Tpm3.12, human TPM3) with N-terminal Met–Ala–Ser extension (natural protein)

other: N (relative number of disordered fluorophores) ([2]; S1 (no nucleotide), Actin + Tpm + Tn, + Ca2+, parent: est. 0.17): 0.1 rel. units | other: N (relative number of disordered fluorophores) [2, 10]: 0.1 rel. units | other: N (relative number of disordered fluorophores) [2, 11]: 0.13 rel. units | other: N (relative number of disordered fluorophores) [2, 12]: 0.13 rel. units | other: N (relative number of disordered fluorophores) ([2]; S1 + ATP, Actin + Tpm + Tn, + Ca2+, parent: est. 0.18): 0.28 rel. units | other: N (relative number of disordered fluorophores) [2, 13]: 0.35 rel. units | other: N (relative number of disordered fluorophores) [2, 14]: 0.15 rel. units
Substance: wild-type γ-tropomyosin (Tpm3.12, human TPM3) with N-terminal Met–Ala–Ser extension E173A

other: N (relative number of disordered fluorophores) ([2]; S1 (no nucleotide), Actin + Tpm + Tn, + Ca2+, parent: est. 0.15): 0.2 rel. units | other: N (relative number of disordered fluorophores) [2, 10]: 0.17 rel. units | other: N (relative number of disordered fluorophores) [2, 11]: 0.17 rel. units | other: N (relative number of disordered fluorophores) [2, 12]: 0.16 rel. units | other: N (relative number of disordered fluorophores) ([2]; S1 + ATP, Actin + Tpm + Tn, + Ca2+, parent: est. 0.32): 0.095 rel. units | other: N (relative number of disordered fluorophores) [2, 13]: 0.1 rel. units | other: N (relative number of disordered fluorophores) [2, 14]: 0.15 rel. units
Substance: wild-type γ-tropomyosin (Tpm3.12, human TPM3) with N-terminal Met–Ala–Ser extension R90P

stoichiometry N [1, 3]: 6.9
Substance: α-tropomyosin (rat TPM1) K168E with N-terminal Met–Ala–Ser extension (natural protein)

stoichiometry N [1, 3]: 6.9
Substance: α-tropomyosin (rat TPM1) R167H with N-terminal Met–Ala–Ser extension (natural protein)

stoichiometry N [1, 3]: 6.9
Substance: β-tropomyosin (human TPM2) E117K with N-terminal Met–Ala–Ser extension (natural protein)

stoichiometry N [1, 3]: 6.9
Substance: β-tropomyosin (human TPM2) Q147P with N-terminal Met–Ala–Ser extension (natural protein)

stoichiometry N [1, 3]: 6.9
Substance: β-tropomyosin (human TPM2) R91G with N-terminal Met–Ala–Ser extension (natural protein)

stoichiometry N [1, 3]: 6.9
Substance: γ-tropomyosin (Tpm3.12, human TPM3) E150A with N-terminal Met–Ala–Ser extension (natural protein)

stoichiometry N [1, 3]: 6.9
Substance: γ-tropomyosin (Tpm3.12, human TPM3) E173A with N-terminal Met–Ala–Ser extension (natural protein)

stoichiometry N [1, 3]: 6.9
Substance: γ-tropomyosin (Tpm3.12, human TPM3) R90P with N-terminal Met–Ala–Ser extension (natural protein)
